# Data reported in paper PMC1409677.
# Target: human alpha-thrombin (Homo sapiens, UniProt P00734;P00734 328-363;364-622)
# Experiment: FRET
binder,measurement,value
TAAGTTCATCTCGGTTGGTGTGGTTGG (structured_DNA) [APT (thrombin aptamer with 12 nt 5' toehold)],binding result,binds
